The target in this experiment is T1, biotinylated IL-2 receptor beta gamma heterodimer Fc (IL-2RBG; Acro ILG-H5254) (UniProt P14784 27-239; P31785 23-262, biotinylated).
T1 construct: bought heterodimer
T1 sequence (looked up) 1: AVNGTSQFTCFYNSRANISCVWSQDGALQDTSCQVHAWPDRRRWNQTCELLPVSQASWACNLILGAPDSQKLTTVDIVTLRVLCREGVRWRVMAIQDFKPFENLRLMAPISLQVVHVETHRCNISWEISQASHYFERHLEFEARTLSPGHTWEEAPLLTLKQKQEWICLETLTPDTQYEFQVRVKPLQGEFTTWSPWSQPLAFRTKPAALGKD
T1 sequence (looked up) 2: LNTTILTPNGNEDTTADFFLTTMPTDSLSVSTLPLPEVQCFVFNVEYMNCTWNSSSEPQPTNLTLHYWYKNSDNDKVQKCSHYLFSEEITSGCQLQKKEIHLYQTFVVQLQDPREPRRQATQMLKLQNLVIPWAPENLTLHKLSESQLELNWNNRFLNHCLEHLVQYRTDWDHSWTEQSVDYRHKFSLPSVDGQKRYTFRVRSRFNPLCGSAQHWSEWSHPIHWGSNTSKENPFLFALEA
Description: ELISA, captured complex, biotin-IL-2RBG 10 nM, PD-1 Fc titrated. As to the method:
The DBA-cytokine complexes and control antibody-cytokine complexes were produced in two formats: (1) “Symmetric” immunocytokine (shown in FIG. 2E); or (2) “Asymmetric” immunocytokine (shown in FIG. 2B) by expression in mammalian cells and purified using standard protocols. […] To perform the assay, 384-well ELISA plates were coated with anti-Fc antibody at 1 micrograms/ml in 100 mM bicarbonate solution pH 9.0 overnight at 4° C. and washed twice with SUPERBLOCK™. Antibody-cytokine complexes were then added to each well at a constant concentration of 6 nM and allowed to incubate for 1 hour and washed three times in PBS plus 0.05% TWEEN® 20 (PBST). Titrated concentrations of PD-1 Fc or an IgG1 control Fc were added and allowed to incubate for 15 minutes before the addition of a constant amount of biotinylated IL-2RBG at 10 nM. The plates were incubated for an additional 30 minutes, washed and biotinylated IL-2RBG detection was performed using streptavidin-HRP and standard ELISA protocols.
(In an ELISA, binding on a coated surface is turned into a signal by an enzyme label.)

B1: AF003951 (other)
heavy 1: APASSSTKKTQLQLEHLLLDLQMILNGINNYKNPKLTRMLTAKFAMPKKATELKHLQCLEEELKPLEEVLNGAQSKNFHLRPRDLISNINVIVLELKGSETTFMCEYADETATIVEFLNRWITFAQSIISTLTGGGGSGGGGSGGGGSGGGGSQVQLVQSGAEVKKPGASVKVSCKASGYTFTDYYMHWVRQAPGQGLEWMGIINPRAGYTSYALKFQGRVTMTRDTSTSTVYMELSSLRSEDTAVYYCTSGWDVWGQGTLVTVSSAKTTAPSVYPLAPVCGDTTGSSVTLGCLVKGYFPEPVTLTWNSGSLSSGVHTFPAVLQSDLYTLSSSVTVTSSTWPSQSITCNVAHPASSTKVDKKIEPRGPTIKPCPPCKCPAPNAAGGPSVFIFPPKIKDVLMISLSPIVTCVVVDVSEDDPDVQISWFVNNVEVHTAQTQTHREDYNSTLRVVSALPIQHQDWMSGKEFKCKVNNKDLGAPIERTISKPKGSVRAPQVYVLPPPEEEMTKKQVTLTCMVTDFMPEDIYVEWTNNGKTELNYKNTEPVLDSDGSYFMYSDLRVEKKNWVERNSYSCSVVHEGLHNHHTTESFSRTPGK
heavy 2: QVQLVQSGAEVKKPGASVKVSCKASGYTFTDYYMHWVRQAPGQGLEWMGIINPRAGYTSYALKFQGRVTMTRDTSTSTVYMELSSLRSEDTAVYYCTSGWDVWGQGTLVTVSSAKTTAPSVYPLAPVCGDTTGSSVTLGCLVKGYFPEPVTLTWNSGSLSSGVHTFPAVLQSDLYTLSSSVTVTSSTWPSQSITCNVAHPASSTKVDKKIEPRGPTIKPCPPCKCPAPNAAGGPSVFIFPPKIKDVLMISLSPIVTCVVVDVSEDDPDVQISWFVNNVEVHTAQTQTHREDYNSTLRVVSALPIQHQDWMSGKEFKCKVNNKDLGAPIERTISKPKGSVRAPQVYVLPPPEKEMTKKQVSLTCLVKDFMPEDIYVEWTNNGKTELNYKNTEPVLKSDGSYFMYSKLTVEKKNWVERNSYSCSVVHEGLHNHHTTKSFSRTPGGGGSGGGSHHHHHH
light: DIQMTQSPSSLSASVGDRVTITCRASQSISTWLAWYQQKPGKAPKLLIYAASSLDSGVPSRFSGSGSGTDFTLTISSLQPEDFATYYCQQSYSFPVTFGQGTKVEIKRADAAPTVSIFPPSSEQLTSGGASVVCFLNNFYPKDINVKWKIDGSERQNGVLNSWTDQDSKDSTYSMSSTLTLTKDEYERHNSYTCEATHKTSTSPIVKSFNRNEC
notes: also called AF3951
For the molecule B1, the binding result is given as “binds”.

B2: AF003952 (other)
heavy 1: APASSSTKKTQLQLEHLLLDLQMILNGINNYKNPKLTRMLTAKFAMPKKATELKHLQCLEEELKPLEEVLNGAQSKNFHLRPRDLISNINVIVLELKGSETTFMCEYADETATIVEFLNRWITFAQSIISTLTGGGGSGGGGSGGGGSGGGGSQVQLVQSGAEVKKPGASVKVSCKASGYTFTRYYMHWVRQAPGQGLEWMGIINPRAGYTSYALKFQGRVTMTRDTSTSTVYMELSSLRSEDTAVYYCTSGWDVWGQGTLVTVSSAKTTAPSVYPLAPVCGDTTGSSVTLGCLVKGYFPEPVTLTWNSGSLSSGVHTFPAVLQSDLYTLSSSVTVTSSTWPSQSITCNVAHPASSTKVDKKIEPRGPTIKPCPPCKCPAPNAAGGPSVFIFPPKIKDVLMISLSPIVTCVVVDVSEDDPDVQISWFVNNVEVHTAQTQTHREDYNSTLRVVSALPIQHQDWMSGKEFKCKVNNKDLGAPIERTISKPKGSVRAPQVYVLPPPEEEMTKKQVTLTCMVTDFMPEDIYVEWTNNGKTELNYKNTEPVLDSDGSYFMYSDLRVEKKNWVERNSYSCSVVHEGLHNHHTTESFSRTPGK
heavy 2: QVQLVQSGAEVKKPGASVKVSCKASGYTFTRYYMHWVRQAPGQGLEWMGIINPRAGYTSYALKFQGRVTMTRDTSTSTVYMELSSLRSEDTAVYYCTSGWDVWGQGTLVTVSSAKTTAPSVYPLAPVCGDTTGSSVTLGCLVKGYFPEPVTLTWNSGSLSSGVHTFPAVLQSDLYTLSSSVTVTSSTWPSQSITCNVAHPASSTKVDKKIEPRGPTIKPCPPCKCPAPNAAGGPSVFIFPPKIKDVLMISLSPIVTCVVVDVSEDDPDVQISWFVNNVEVHTAQTQTHREDYNSTLRVVSALPIQHQDWMSGKEFKCKVNNKDLGAPIERTISKPKGSVRAPQVYVLPPPEKEMTKKQVSLTCLVKDFMPEDIYVEWTNNGKTELNYKNTEPVLKSDGSYFMYSKLTVEKKNWVERNSYSCSVVHEGLHNHHTTKSFSRTPGGGGSGGGSHHHHHH
light: DIQMTQSPSSLSASVGDRVTITCRASQSISTWLAWYQQKPGKAPKLLIYAASSLDSGVPSRFSGSGSGTDFTLTISSLQPEDFATYYCQQSYSFPVTFGQGTKVEIKRADAAPTVSIFPPSSEQLTSGGASVVCFLNNFYPKDINVKWKIDGSERQNGVLNSWTDQDSKDSTYSMSSTLTLTKDEYERHNSYTCEATHKTSTSPIVKSFNRNEC
notes: also called AF3952
For the molecule B2, the binding result is “binds”.
